Experimental data as given in PMC4461315.

Target: human complement Factor H (human) (UniProt P08603)
Assay: SPR

human complement Factor H (human), sequence (P08603 19-1231): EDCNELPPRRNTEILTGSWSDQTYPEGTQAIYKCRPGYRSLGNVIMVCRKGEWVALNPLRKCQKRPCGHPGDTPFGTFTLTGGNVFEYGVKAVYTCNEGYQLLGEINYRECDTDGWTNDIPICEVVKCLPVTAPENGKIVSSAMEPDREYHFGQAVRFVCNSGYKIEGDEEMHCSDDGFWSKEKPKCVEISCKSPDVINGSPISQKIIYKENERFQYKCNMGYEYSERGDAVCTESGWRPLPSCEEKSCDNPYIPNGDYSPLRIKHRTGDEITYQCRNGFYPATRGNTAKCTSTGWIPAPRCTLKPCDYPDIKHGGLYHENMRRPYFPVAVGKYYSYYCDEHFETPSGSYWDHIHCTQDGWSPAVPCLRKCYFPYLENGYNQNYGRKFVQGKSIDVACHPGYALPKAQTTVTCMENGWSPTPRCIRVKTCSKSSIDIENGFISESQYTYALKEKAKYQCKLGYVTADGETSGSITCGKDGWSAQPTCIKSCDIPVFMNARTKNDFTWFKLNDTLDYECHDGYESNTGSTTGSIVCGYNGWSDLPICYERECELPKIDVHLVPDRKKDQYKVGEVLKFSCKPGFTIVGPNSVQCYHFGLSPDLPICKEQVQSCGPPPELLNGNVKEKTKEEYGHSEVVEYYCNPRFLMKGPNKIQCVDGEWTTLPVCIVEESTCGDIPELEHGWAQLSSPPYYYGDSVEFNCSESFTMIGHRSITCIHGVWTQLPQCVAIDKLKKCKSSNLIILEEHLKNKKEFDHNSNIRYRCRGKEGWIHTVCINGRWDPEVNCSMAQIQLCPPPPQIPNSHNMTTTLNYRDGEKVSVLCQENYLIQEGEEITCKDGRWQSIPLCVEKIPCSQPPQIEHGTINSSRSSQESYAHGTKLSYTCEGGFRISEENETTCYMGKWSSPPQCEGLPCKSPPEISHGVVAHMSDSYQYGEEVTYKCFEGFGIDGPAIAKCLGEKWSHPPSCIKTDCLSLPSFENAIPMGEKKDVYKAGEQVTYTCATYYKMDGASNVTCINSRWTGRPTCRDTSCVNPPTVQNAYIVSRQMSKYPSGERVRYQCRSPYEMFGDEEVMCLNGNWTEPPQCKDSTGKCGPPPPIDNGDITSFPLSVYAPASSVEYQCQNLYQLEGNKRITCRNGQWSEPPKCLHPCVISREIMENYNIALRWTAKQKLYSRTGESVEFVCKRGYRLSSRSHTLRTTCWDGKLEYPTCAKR

Substance	response units at 100 nM FHbp (response units)
FHbp ID 1 E92K mutant, soluble recombinant (from UniProt Q9JXV4 20-274) (natural protein)	< 2
FHbp ID 1 H248L mutant, soluble recombinant (from UniProt Q9JXV4 20-274) (natural protein)	< 2
FHbp ID 1 S223R mutant, soluble recombinant (from UniProt Q9JXV4 20-274) (natural protein)	< 2
